From paper PMC8823281 (Biochemistry, 2021) come the findings set out here.

Assay in all cases: immunostaining of cells or tissue
Assay [1] has as its target plasma membrane-targeted version of rat VGLUT3 (Rattus norvegicus, UniProt Q7TSF2).
Assay [2] deals with plasma membrane-targeted version of rat VGLUT1 (Rattus norvegicus, UniProt Q62634).
The target in assay [3] is plasma membrane-targeted version of rat VGLUT2 (Rattus norvegicus, UniProt Q9JI12, point mutant).
Sequence of plasma membrane-targeted version of rat VGLUT2 (Q9JI12 whole entry, change not shown): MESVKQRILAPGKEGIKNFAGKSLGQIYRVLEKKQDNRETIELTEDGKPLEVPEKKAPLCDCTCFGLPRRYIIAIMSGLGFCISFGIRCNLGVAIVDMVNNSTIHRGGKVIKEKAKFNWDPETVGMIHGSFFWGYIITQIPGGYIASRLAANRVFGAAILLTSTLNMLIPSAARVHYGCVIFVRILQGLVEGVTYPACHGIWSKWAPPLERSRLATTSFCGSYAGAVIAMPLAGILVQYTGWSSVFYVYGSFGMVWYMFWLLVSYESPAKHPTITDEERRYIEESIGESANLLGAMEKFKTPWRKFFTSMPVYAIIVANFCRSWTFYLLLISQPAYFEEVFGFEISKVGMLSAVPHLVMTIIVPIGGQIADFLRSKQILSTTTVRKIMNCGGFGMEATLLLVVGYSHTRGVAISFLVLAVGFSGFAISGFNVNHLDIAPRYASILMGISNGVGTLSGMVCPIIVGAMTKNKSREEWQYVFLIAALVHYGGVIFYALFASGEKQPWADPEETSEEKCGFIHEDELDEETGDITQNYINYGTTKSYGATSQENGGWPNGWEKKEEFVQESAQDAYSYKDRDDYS

Sequence of plasma membrane-targeted version of rat VGLUT3 (Q7TSF2 whole entry): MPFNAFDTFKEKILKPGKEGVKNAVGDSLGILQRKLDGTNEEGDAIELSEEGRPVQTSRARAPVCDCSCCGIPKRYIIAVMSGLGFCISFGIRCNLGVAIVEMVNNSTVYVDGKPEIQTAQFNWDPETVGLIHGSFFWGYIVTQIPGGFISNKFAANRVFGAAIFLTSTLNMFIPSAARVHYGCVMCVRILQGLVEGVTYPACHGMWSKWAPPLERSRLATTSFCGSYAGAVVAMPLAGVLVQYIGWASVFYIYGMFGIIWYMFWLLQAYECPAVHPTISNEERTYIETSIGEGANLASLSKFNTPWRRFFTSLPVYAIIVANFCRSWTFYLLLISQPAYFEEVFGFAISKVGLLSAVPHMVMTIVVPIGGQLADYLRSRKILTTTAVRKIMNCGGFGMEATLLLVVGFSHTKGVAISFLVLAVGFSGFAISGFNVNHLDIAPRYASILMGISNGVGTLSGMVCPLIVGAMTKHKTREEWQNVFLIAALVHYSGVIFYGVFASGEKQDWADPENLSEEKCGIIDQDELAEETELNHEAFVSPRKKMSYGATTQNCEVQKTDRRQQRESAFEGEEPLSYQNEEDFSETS
Sequence of plasma membrane-targeted version of rat VGLUT1 (Q62634 whole entry): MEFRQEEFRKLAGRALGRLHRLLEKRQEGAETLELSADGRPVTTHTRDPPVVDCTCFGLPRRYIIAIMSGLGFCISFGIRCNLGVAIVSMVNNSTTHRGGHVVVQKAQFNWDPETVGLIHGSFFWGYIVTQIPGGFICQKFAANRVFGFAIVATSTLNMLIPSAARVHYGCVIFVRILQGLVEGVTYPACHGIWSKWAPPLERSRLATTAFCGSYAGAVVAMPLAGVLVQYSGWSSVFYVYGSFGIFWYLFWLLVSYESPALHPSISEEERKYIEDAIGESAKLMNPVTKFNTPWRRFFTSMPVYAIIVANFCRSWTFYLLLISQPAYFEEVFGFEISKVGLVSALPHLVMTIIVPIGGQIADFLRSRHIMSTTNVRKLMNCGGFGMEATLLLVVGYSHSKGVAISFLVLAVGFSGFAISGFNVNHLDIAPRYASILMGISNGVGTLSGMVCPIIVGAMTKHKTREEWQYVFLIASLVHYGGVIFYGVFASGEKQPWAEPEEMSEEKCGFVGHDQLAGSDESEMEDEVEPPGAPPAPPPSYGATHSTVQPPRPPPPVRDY

B1: monoclonal antibody 9C6 (antibody, V domains shown)
VH: EVMLVESGGGLVKPGGSLKISCAASGFTFSWYAMSWVRQTPEKRLEWVATISSAGSYTYYPDSVKGRFTISRDNAKNTLYLQMSSLRSEDTAMYYCSRVPILGRVDYWGQGTTLTVSS
VL: QIVLTQSPAIMSASPGEKVTMTCSASSSVTYMHWYQQKSGTSPKTWIYDSSRLASGVPARFSGSGSGTSYSLTISSMEAEDAATYYCQHWSSNPPIFTFGSGTKLEIK
Consider B1, for which the binding result in assay [1] is listed as “no binding”; in assay [2], “binds”; in assay [3] it was “binds”.

B2: monoclonal antibody 8E11 (antibody, V domains shown)
VH: EVMLVESGGGLVKPGGSLKISCAASGFTFSWYAMSWVRQTPEKRLEWVATISSAGSYTYYPDSVKGRFTISRDNAKNTLYLQMSSLRSEDTAMYYCSRVPILGRVDYWGQGTTLTVSS
VL: QIVLTQSPAFMSASPGEKVTMTCSASSSVTYMNWYQQKSGTSPKTWIYDSSRLASGVPPRFSGSGSGTSYSLTISSMEAEDAATYYCQQWSSNPPIFTFGSGTKLEIK
In the case of B2, the binding result in assay [1] was “no binding”; in assay [2], “binds”.
